In paper PMC314469, “Protein Interaction Networks by Proteome Peptide Scanning” (PLoS Biology, 2004):

How the values were obtained:
Assay in all cases: SPOT array
[1] = molecular target: T1, Rvs167 SH3 (RV167_YEAST), P39743
T1 chain: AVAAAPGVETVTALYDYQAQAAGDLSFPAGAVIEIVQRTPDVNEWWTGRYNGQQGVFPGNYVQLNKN

[2] = molecular target: T2, Yhr016c SH3 (YSC84_YEAST), P32793
T2 chain: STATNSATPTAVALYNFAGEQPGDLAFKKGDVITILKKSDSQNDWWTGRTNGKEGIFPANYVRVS

[3] = molecular target: T3, Boi1 SH3 (BOI1_YEAST), P38041
T3 chain: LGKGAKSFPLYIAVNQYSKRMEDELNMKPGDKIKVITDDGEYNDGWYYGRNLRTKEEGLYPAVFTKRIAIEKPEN

[4] = molecular target: Sho1 SH3 (SHO1_YEAST), P40073
[5] = molecular target: T4, Yfr024 SH3 (LSB3_YEAST), P43603
T4 chain: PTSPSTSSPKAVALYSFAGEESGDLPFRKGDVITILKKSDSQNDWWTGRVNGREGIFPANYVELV

[6] = molecular target: T5, Boi2 SH3 (BOI2_YEAST), P39969
T5 chain: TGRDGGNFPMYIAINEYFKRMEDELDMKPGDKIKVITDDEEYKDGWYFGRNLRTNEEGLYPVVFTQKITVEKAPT

[7] = molecular target: T6, Myo5 SH3 (MYO5_YEAST), Q04439
T6 chain: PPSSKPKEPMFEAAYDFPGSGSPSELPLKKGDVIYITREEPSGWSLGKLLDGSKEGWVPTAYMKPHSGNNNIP

Chain of Sho1 SH3 (SHO1_YEAST), P40073 (P40073 295-366): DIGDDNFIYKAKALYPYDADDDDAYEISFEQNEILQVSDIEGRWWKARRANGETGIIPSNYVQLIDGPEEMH

Row | Binder | normalised SPOT signal, Boehringer light units (BLU); mean over the file's lines of this peptide [1] | normalised SPOT signal, Boehringer light units (BLU); mean over the file's lines of this peptide [2] | normalised SPOT signal, Boehringer light units (BLU); mean over the file's lines of this peptide [3] | normalised SPOT signal, Boehringer light units (BLU); mean over the file's lines of this peptide [4] | normalised SPOT signal, Boehringer light units (BLU); mean over the file's lines of this peptide [5] | normalised SPOT signal, Boehringer light units (BLU); mean over the file's lines of this peptide [6] | normalised SPOT signal, Boehringer light units (BLU); mean over the file's lines of this peptide [7]
1 | YPNGRTLPPVPTQV [YER064C 178-191] | 922 | 505 | -0 | 17400 | 1460 | 18.3 | 172
2 | YAVGRIVPDSPTYD [YBL035C 295-308] | 127 | 257 | 87.3 | 39.9 | 159 | 33.2 | 189
3 | YGSEKGSPAGPSAV [YDR429C 58-71] | 28.6 | 8.8 | 65.1 | 46.4 | 13.4 | 40 | 50.3
4 | YILPKTDPRSPYYI [YPR115W 96-109] | 176 | 27.8 | 222 | 19.5 | 113 | 44.9 | 188
5 | YDLTRFLPNHPGGQ [YML054C 114-127] | 20.5 | 22.5 | 59.5 | 59.7 | 147 | 46.2 | 80.6
6 | YSTNRGIPARPSKD [YPL073C 79-92] | 8430 | 5100 | 534 | 179 | 17300 | 107 | 271
7 | YSPWKLSPLLPILY [YCR001W 27-40] | 66.5 | 40.4 | 88.3 | 63.6 | 514 | 99.3 | 176
8 | WSQMRMNPTNPDWI [YPR074C 45-58] | 892 | 1270 | 115 | 132 | 3220 | 1320 | 81.2
9 | YAVDKIMPPTPAKK [YAL024C 308-321] | 71.5 | 22 | 44.9 | 112 | 512 | 2 | 110
10 | YKNRKNLPTIPIRL [YGL085W 139-152] | 2750 | 538 | 12400 | 28200 | 2960 | 48.9 | 961
11 | YEGPRGAPGMPEML [YJR016C 463-476] | 63.3 | 15.4 | 64 | 39.6 | 131 | 26.3 | 166
12 | YGDNKKNPESPESV [YDL133W 210-223] | 3.3 | 19.5 | 79.4 | 25.3 | 13.3 | 8.4 | 147
13 | YFVKKIRPGNPLTK [YJL149W 279-292] | 220 | 92.2 | 410 | 139 | 244 | 58.3 | 508
